Values of other authors as cited in article PMC9456187, “The Ambivalence of Connexin43 Gap Peptides in Cardioprotection of the Isolated Heart against Ischemic Injury” (International Journal of Molecular Sciences, 2022).

Tested on: isolated subsarcolemmal mitochondria, calcium-induced mitochondrial permeability transition
Settings: rat heart, Gap27 at substantially higher concentrations than in present study, ref [34]
Excerpt: The detailed mechanisms behind IPC are still debated, but multiple studies confirm that mitochondria play a crucial role in the observed infarct size limitation. IPC promotes translocation of signaling kinases to mitochondria, changes volume regulation of mitochondria, opens mitochondrial potassium channels and delays ROS-induced mitochondrial permeability transition. Connexin43 can be detected in subsarcolemmal mitochondria using immunoblotting of extracts from isolated mitochondria. The role of connexin43 in mitochondria has recently been reviewed ...

B1: Fibroblast growth factor 2: Fibroblast growth factor 2 triggers the protection of rat heart mitochondria (protein, UniProt P13109 10-154, looked up)
Fibroblast growth factor 2: PALPEDGGGAFPPGHFKDPKRLYCKNGGFFLRIHPDGRVDGVREKSDPHVKLQLQAEERGVVSIKGVCANRYLAMKEDGRLLASKCVTEECFFFERLESNNYNTYRSRKYSSWYVALKRTGQYKLGSKTGPGQKAILFLPMSAKS
Effect on (FGF2-induced) protection of mitochondria against calcium-induced permeability transition (in words): triggers the protection of rat heart mitochondria
